Measurements from PMC8246987.

Target: T1, DJ‐1 (human (endogenous in HEK‐293)), Q99497
T1 chain: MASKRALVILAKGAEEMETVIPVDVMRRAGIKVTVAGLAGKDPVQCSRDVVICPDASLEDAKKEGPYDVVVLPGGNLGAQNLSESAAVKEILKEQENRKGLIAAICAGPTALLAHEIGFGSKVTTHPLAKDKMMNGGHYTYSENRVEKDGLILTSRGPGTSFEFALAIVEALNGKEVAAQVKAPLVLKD
Assay: cross-linking
Details: remark: other sources report otherwise

B1: DJ‐1, Q99497 1-189 (natural protein)
chain: T1 chain
With B1 the stoichiometry N was 2.
